The data set can be described thus: protein stability index of a GFP-peptide fusion (GPS, HEK-293T) (PSI 1-6); higher = more stable.
[1] abbreviates: treatment: DMSO, c terminus: a fixed tail appended.
The mark [2] stands for this setting: treatment: MLN4924 1 uM, 8 h, c terminus: a fixed tail appended.

± gives the standard deviation.

This passage reports protein stability index results from the supplement of paper PMC10567573.
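Further: 24-mer peptide tiles fused after GFP, lentivirally expressed, FACS-sorted into six equal bins by GFP/DsRed ratio, decoded by Illumina sequencing, PSI is the read-weighted mean bin number.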

EDITKGTQSLPTASASKFPSSGPV [AUP1]: the protein stability index by setting is: under setting [1], 5.19 ± 0.19; under setting [2], 5.08 ± 0.1.
The like results for KKVSEGPPLRLWRSVIEVPAVPEE [DLC1] were, in that order, 3.37 ± 0.42 and 3.91 ± 0.46.
The like results for NKLLLSIIILLELAILGGLVYYKF [VTI1B] were, in that order, 2.96 ± 0.57 and 2.84 ± 0.49.
The like results for FQVNKLMKKIKKLENDTISKQLTL [CCDC6] were, in that order, 2.26 ± 0.12 and 2.38 ± 0.33.
As to TLMEEVLLLGLKDREGYTSFWNDC [GOLPH3], the protein stability index under setting [1] was determined as 2.71 ± 0.58 and the protein stability index under setting [2] amounted to 2.72 ± 0.69.
In the same order, the values of EGDLPQMEVGSGSRELSLRPSRSG [EID1] are 5.07 ± 0.31 and 5.36 ± 0.35.
As for SVTDVTTSSLRLNWEAPPGAFDSF [TNXB], the protein stability index runs as follows: under setting [1], 3.54 ± 0.2; under setting [2], 3.35 ± 0.16.
Under setting [2], PGHSGVSCEEVAASSASLEPMWSG [EMID1] returned a protein stability index of 5.08 ± 0.08.
In the case of PSTTPPAHSSSNTIRSGISPNLNV [SASS6], the protein stability index by setting is: under setting [1], 4.29 ± 0.33; under setting [2], 4.44 ± 0.28.
Regarding LMIIVCIDQWKNKIWPEIKVPRPD [RETREG3], the protein stability index by setting is: under setting [1], 2.81 ± 0.43; under setting [2], 2.82 ± 0.45.
As for GMDLNLEAEALAGTGLVLDEQLNE [HDAC6], the protein stability index reads like this: under setting [1], 5.4 ± 0.44; under setting [2], 5.33 ± 0.24.
The like results for NGEARQLPEDDGLEQDLQQVMVSG [ARFIP2] were, in that order, 5.36 ± 0.22 and 5.49 ± 0.2.
In the same order, the values of NEKIYELRVMETKPDKAVSIIECD [UFD1] are 4.33 ± 0.11 and 4.28 ± 0.16.
The like results for CSSKRSSYPVMGFEFQVRVCDSCY [WDFY1] were, in that order, 2.66 ± 0.9 and 2.32 ± 0.23.
On to EETTSQDWGTPRELTFSYIAFDGV [RTN2], for which the protein stability index came out at 2.65 ± 0.15 under setting [1] and 2.8 ± 0.61 under setting [2].
In the same order, the values of KFADNKWSVTGKAEPAMPGRLYVH [TBX5] are 2.53 ± 0.094 and 2.61 ± 0.27.
The like results for KATAAFSNVGTAISKKFGDMSYSI [TPD52L1] were, in that order, 2.72 ± 0.14 and 2.72 ± 0.13.
The like results for SAPVETPRGKPPLNTRSQAPLLRW [HMOX1] were, in that order, 3.64 ± 0.26 and 3.72 ± 0.24.
In the case of LKELQAIAERLGCTLPQLAIAWCL [KCNAB2], the protein stability index came to 2.29 ± 0.74 under setting [1] and 2.27 ± 0.25 under setting [2].
In the same order, the values of QHAVQELTKAATSGVGIDGEVLSY [RHOBTB1] are 4.5 ± 0.25 and 4.57 ± 0.14.
For PATEEQEAASSSSTLVEVTLGEVP [MAGEA3], the protein stability index is, setting by setting: under setting [1], 5.52 ± 0.17; under setting [2], 5.51 ± 0.17.
The like results for DSLAKEIQYLKDLIEEVRKARGKK [ATF4] were, in that order, 2.25 ± 0.31 and 2.14 ± 0.44.
With KQDVLGPSTTPPAHSSSNTIRSGI [SASS6], the protein stability index was found to be 4.66 ± 0.34 under setting [1] and 4.63 ± 0.22 under setting [2].
The like results for QNPKDCSKAKKLVCNINKGCGYGC [FUT8] were, in that order, 3.53 ± 0.1 and 3.48 ± 0.17.
The like results for VAGTMESPFSPGLFHRLDEDWDSA [ATF6] were, in that order, 4.38 ± 0.11 and 4.32 ± 0.2.
The like results for LDGKKKGVEPSPSPIKPGDIKRGI [UFD1] were, in that order, 4.92 ± 0.24 and 4.92 ± 0.25.
For the sequence DSMEGKRSPYAGLQLGAAKKPPVT [TRIM29], the protein stability index reads like this: under setting [1], 4.58 ± 0.35; under setting [2], 4.52 ± 0.18.
In the same order, the values of YYLHPLPAGAEYCSSARHPAWGHC [SCNN1D] are 2.12 ± 0.2 and 2.21 ± 0.12.
The like results for EKILRELSEEEEDEEEEEEEEEEG [KCNA4] were, in that order, 5.65 ± 0.2 and 5.69 ± 0.17.
The like results for GIIVKDARLNGSVASYILASHNGI [TENT5D] were, in that order, 2.66 ± 0.045 and 2.189 ± 0.003.
As to SKNGNGLKNTPRFKRRRVRRRRME [PCMTD2], the protein stability index is 4.6 ± 0.2 under setting [1] and 4.58 ± 0.32 under setting [2].
The like results for LIKFQVGLKKLNLHEEEHVLLMAI [VDR] were, in that order, 2.8 ± 0.62 and 2.73 ± 0.78.
As for DTQVNPVGSVSVDCGPSRADRCSP [FBXO34], the protein stability index reads like this: under setting [1], 5.09 ± 0.32; under setting [2], 5.15 ± 0.28.
The like results for KQDSYEQGDSSQQSLKGHLRNNFQ [ZC2HC1C] were, in that order, 4.69 ± 0.24 and 4.84 ± 0.11.
The like results for THWAVGVCRDSVSRKGELTPLPET [TRIM39] were, in that order, 2.96 ± 0.19 and 2.95 ± 0.23.
In the same order, the values of ELQLEAANETYENNFDNLDFDLDL [ATF6] are 4.76 ± 0.26 and 5.08 ± 0.11.
As for LQILAYGNQESKLIILASGGPQAL [CTNNB1], the protein stability index is, setting by setting: under setting [1], 2.89 ± 1.4; under setting [2], 2.22 ± 1.1.
The like results for CTPGGTTIYGLHALEQGGLRAATM [PYCR3] were, in that order, 2.36 ± 0.73 and 2.25 ± 0.72.
In the same order, the values of RAACFDGHLEIVKYLVEHKADLEV [FEM1C] are 2.59 ± 0.31 and 2.66 ± 0.58.
The like results for VILLPYVSKVTGWCRDRLLGHREP [TMEM175] were, in that order, 2.28 ± 0.3 and 2.04 ± 0.36.
Turning to AAFPNLANLSRTQLLHLGLTQGLI [KLHDC10], the protein stability index under setting [1] turned out to be 2.58 ± 0.3 and the protein stability index under setting [2] stood at 2.27 ± 0.2.
Consider YSWNNRCMVEIVQKYDPDKDEWHK [KLHL13], for which the protein stability index runs as follows: under setting [1], 2.84 ± 0.42; under setting [2], 2.86 ± 0.25.
The like results for ALTGPVVDIVTGHARLSDIWAKTP [DHCR7] were, in that order, 2.63 ± 0.21 and 2.71 ± 0.17.
For CQGQPQGKAVVSHSKGHKSSRQEK [ELOA2], the protein stability index is 5.38 ± 0.22 under setting [1] and 5.37 ± 0.1 under setting [2].
The like results for LQGLIPGARYEVTVVSVRGFEESE [TNXB] were, in that order, 2.19 ± 0.34 and 2.44 ± 0.78.
Take PVQGSSEDNLSLVCLPRSEDDDCD [DRICH1]: the protein stability index by setting is: under setting [1], 5.62 ± 0.2; under setting [2], 5.53 ± 0.21.
The like results for MPGFPDNIRPSSSGGYWVGMSTIR [APMAP] were, in that order, 2.87 ± 0.38 and 2.9 ± 0.42.
In the same order, the values of TRGFLRSPSSDLDTDAEGDDFELL [RETREG3] are 5.24 ± 0.17 and 5.29 ± 0.2.
In the case of PAHKNLNKQAYDLAKALLKRTAQA [PDS5B], the protein stability index runs as follows: under setting [1], 2.22 ± 0.16; under setting [2], 2.51 ± 0.18.
Regarding LDVIERDLHRQFPFHEMFVSRGGH [TBC1D10A], the protein stability index is, setting by setting: under setting [1], 2.98 ± 0.3; under setting [2], 2.86 ± 0.21.
Regarding EEGFMTAELAGVIKRLWKDSGVQA [GNAI1], the protein stability index is, setting by setting: under setting [1], 3.19 ± 0.49; under setting [2], 3.53 ± 0.58.
Take IRLYGLQAGRLLWEQELYSQLVYS [WAS]: the protein stability index runs as follows: under setting [1], 3.11 ± 0.55; under setting [2], 2.7 ± 0.38.
The like results for RTLKSYLGLTNQSRRYNRKEPAEF [ZNF649] were, in that order, 3.09 ± 0.31 and 3.05 ± 0.48.
In the same order, the values of GRDSEGPAEGEGRLGRCMRRLRDM [KCNG1] are 4.99 ± 0.15 and 4.76 ± 0.15.
As for AAAALFGGKKDKARYIDTHNRVSK [PLK2], the protein stability index runs as follows: under setting [1], 3.37 ± 0.22; under setting [2], 3.14 ± 0.39.
As for AVETRLSLLNMTFMKYVDSNLCCF [FBXO28], the protein stability index reads like this: under setting [1], 2.99 ± 1.8; under setting [2], 2.57 ± 1.3.
In the case of ARVKPPEGYDVVAVYPNAKVELV [PDLIM4], the protein stability index is, setting by setting: (treatment: DMSO, c terminus: native) 3.52 ± 0.35; (treatment: MLN4924 1 uM, 8 h, c terminus: native) 3.65 ± 0.22.
With KKELEENFEKLRLSLQDQVDTLTF [MTUS2], the protein stability index worked out at 3.94 ± 0.64 under setting [1] and 3.8 ± 0.42 under setting [2].
Consider IKQKLGMNLMNELKQNFSKSWHDM [TPD52L1], for which the protein stability index turned out to be 2.09 ± 0.2 under setting [1] and 1.98 ± 0.35 under setting [2].
The like results for TVGFLDEAIQPYRDRLRSRLEALS [TRIM15] were, in that order, 2.66 ± 0.27 and 2.77 ± 0.39.
The like results for KQLISQTKKKQWCYNCEEEAMYHC [ZMYND11] were, in that order, 3.1 ± 0.17 and 3.22 ± 0.34.
The like results for KLVDAIVSGDTSKLMKILQPQDVD [RIPK4] were, in that order, 2.51 ± 0.31 and 2.38 ± 0.64.
For FQQNHLFWLQNSSPSSDRVSAIIW [PHTF1], the protein stability index runs as follows: under setting [1], 2.26 ± 0.6; under setting [2], 2.43 ± 0.49.
As to QLCEKAPKEATVMCEQCDVFYCDP [TRIM9], the protein stability index was determined as 4.33 ± 0.081 under setting [1] and 4.33 ± 0.25 under setting [2].
In the same order, the values of MVGPLAQDPQSPMAGLRWLDSWDF [POMT2] are 2.66 ± 0.42 and 2.75 ± 0.41.
The like results for YFITLGTDLAQQQGGGNGQQQQAM [KCNA4] were, in that order, 3.04 ± 0.18 and 2.95 ± 0.67.
In the same order, the values of VGDLMSPFDQSGLGAEESLGLLDD [ATF4] are 5.17 ± 0.27 and 4.89 ± 0.28.
With GDLSGGQVLKKIAQKALDLPSSGE [HMOX1], the protein stability index was found to be 4.77 ± 0.37 under setting [1] and 4.8 ± 0.13 under setting [2].
In the same order, the values of ASSLPAEVHSLTLSPPEQAAQPMQ [PLAGL1] are 5.07 ± 0.12 and 4.89 ± 0.26.
In the case of EGVKRYEQEHAAIQDKLFQVAKRE [CHCHD6], the protein stability index came out at 4.84 ± 0.32 under setting [1] and 4.78 ± 0.24 under setting [2].
In the same order, the values of TDRIAAAQYSVTGSAVARAVCKAT [SNAP91] are 3.9 ± 0.24 and 3.94 ± 0.19.
The like results for SQKGCLALSLLELLGFNLTFVFLA [CLCN6] were, in that order, 3.15 ± 0.42 and 3.03 ± 0.42.
